Data on two molecules can be found in paper PMC8075905, “Mapping the binding sites of antibodies utilized in programmed cell death ligand-1 predictive immunohistochemical assays for use with immuno-oncology therapies” (Modern Pathology, 2019).

Experiment [1] deals with T1, Ext4 PD-L1-GFP, a PD-L1 mutant with residues 284-290 deleted (Homo sapiens, UniProt Q9NZQ7, residues 284–290 deleted).
T1 construct: The label 'Ext4' is probably a slip for 'Int4'; source: HEK293 cells, expressed, on cells
Description: immunostaining of cells or tissue; confocal immunofluorescence microscopy of HEK293 cells expressing PD-L1-GFP constructs, stained with r22C3 and r28-8; protocol in Supplementary Appendix B. The note with it: one partner purified.

The target of experiment [2] is T2, His-tagged extracellular domain of PD-L1 (residues 19-238) (Homo sapiens (Human)., UniProt Q9NZQ7, N-linked glycosylation (sites N35, N192, N200, N219)).
T2 construct: programmed cell death ligand-1 (PD-L1), human, extracellular domain, residues 19-238 of the 290-residue protein; The limits are stated for the SPR experiment; also called PD-L1 extracellular domain; recombinant PD-L1; source: provided by MedImmune, Cambridge, UK; purified
The experiment is described as follows: SPR; Biacore T200, 25 °C, PBS pH 7.4 with 0.05% Tween-20; 90 RU r22C3 captured, PD-L1 extracellular domain injected at 110 nM, then r28-8 injected over the r22C3-PD-L1 complex (top 33 nM, two-fold dilutions); 1:1 Langmuir model. The note with it: both partners purified. (In SPR one partner is held on a chip, and binding of the other changes the refractive index at the surface.)

Experiment [3] addresses T2, His-tagged extracellular domain of …. The experiment is described as follows: SPR; Biacore T200, 25 °C, PBS (10 mM sodium phosphate, 154 mM NaCl, pH 7.4) with 0.05% Tween-20; 90 RU r22C3 captured on anti-mouse antibody on a C1 chip; PD-L1 extracellular domain injected (top 110 nM, two-fold dilutions); 1:1 Langmuir model. The note with it: both partners purified.

T1 sequence (Q9NZQ7 19-283, stated change not applied): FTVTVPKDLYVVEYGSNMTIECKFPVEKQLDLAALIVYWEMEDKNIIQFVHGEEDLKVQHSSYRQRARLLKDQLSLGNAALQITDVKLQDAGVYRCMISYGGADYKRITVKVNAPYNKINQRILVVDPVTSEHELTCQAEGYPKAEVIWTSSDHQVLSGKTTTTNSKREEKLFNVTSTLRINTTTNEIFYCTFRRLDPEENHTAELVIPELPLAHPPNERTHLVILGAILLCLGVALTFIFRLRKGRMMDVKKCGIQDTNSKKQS
T2 sequence (Q9NZQ7 19-238): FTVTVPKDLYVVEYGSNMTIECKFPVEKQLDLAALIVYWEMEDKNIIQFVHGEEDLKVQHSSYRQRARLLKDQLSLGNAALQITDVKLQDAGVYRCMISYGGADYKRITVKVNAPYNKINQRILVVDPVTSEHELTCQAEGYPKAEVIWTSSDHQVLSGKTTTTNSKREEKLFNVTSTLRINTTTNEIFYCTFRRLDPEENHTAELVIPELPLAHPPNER

B1: recombinant 28-8 antibody (r28-8), rabbit IgG (antibody, V domains shown)
VH: CLSVEESGGRLVTPGTPLTLTCTASGFTITNYHMFWVRQAPGKGLEWIGVITSSGIGSSSTTYYATWAKGRFTISKTSTTVNLRITSPTTEDTATYFCARDYFTNTYYALDIWGPGTLVTVSS
VL: ALVMTQTPSSTSTAVGGTVTIKCQASQSISVYLAWYQQKPGQPPKLLIYSASTLASGVPSRFKGSRSGTEYTLTISGVQREDAATYYCLGSAGSFGGGTEVVVK
notes: Rabbit IgG; source: CHO-EBNA-GS cells, transient expression, purified
Usually Kd stands for the concentration at which binding is half-saturated. Turning to B1, the binding result in experiment [1] is “binds”. In experiment [2], this molecule showed an equilibrium dissociation constant (Kd) of less than 0.04 nM.

B2: recombinant 22C3 antibody (r22C3), mouse IgG (antibody, V domains shown)
VH: QVHLQQSGAELAKPGASVKMSCKASGYTFTSYWIHWIKQRPGQGLEWIGYINPSSGYHEYNQKFIDKATLTADRSSSTAYMHLTSLTSEDSAVYYCARSGWLIHGDYYFDFWGQGTTLVTVS
VL: DIVMSQSPSSLAVSAGEKVTMTCKSSQSLLHTSTRKNYLAWYQQKPGQSPKLLIYWASTRESGVPDRFTGSGSGTDFTLTISSVQAEDLAVYYCKQSYDVVTFGAGTKLEIK
notes: Mouse IgG; source: CHO-EBNA-GS cells, transient expression, purified
As for B2, the binding result in experiment [1] is given as “binds”. The molecule further gave a dissociation constant Kd in experiment [3] of less than 0.04 nM.
